Assay results from the Immune Epitope Database (IEDB).
pKd: −log10 of the molar value.

Experiments:
HLA-A*02:16 [1] = assay: IEDB peptide-MHC binding, purified MHC/direct/fluorescence; filed as Kd, often an IC50 or EC50 that approximates it; ≥ and ≤ were set here for values at or beyond the usual limits of such assays; details: source organism: Listeria monocytogenes serotype 4b str. H7858
HLA-A*69:01 = assay: as above
HLA-A*02:01 [2] = assay: as above
HLA-A*02:50 = assay: IEDB peptide-MHC binding, purified MHC/competitive/fluorescence; filed as Kd, often an IC50 or EC50 that approximates it; ≥ and ≤ were set here for values at or beyond the usual limits of such assays
HLA-A*02:06 [3] = assay: as above; details: source organism: Corynebacterium glutamicum ATCC 13032
HLA-B*35:01 = assay: as above; details: source organism: Corynebacterium glutamicum ATCC 13032
HLA-A*02:19 = assay: as above; details: source organism: Corynebacterium glutamicum ATCC 13032
HLA-A*02:16 [4] = assay: as above; details: source organism: Corynebacterium glutamicum ATCC 13032
HLA-A*02:12 = assay: as above; details: source organism: Corynebacterium glutamicum ATCC 13032
HLA-A*31:01 = assay: as above; details: source organism: Corynebacterium glutamicum ATCC 13032
HLA-A*24:02 = assay: as above; details: source organism: Corynebacterium glutamicum ATCC 13032
HLA-A*02:03 = assay: as above; details: source organism: Corynebacterium glutamicum ATCC 13032
HLA-A*30:01 = assay: as above
HLA-A*02:11 [5] = assay: as above; details: source organism: Corynebacterium glutamicum ATCC 13032
HLA-A*26:01 [6] = assay: as above; details: source organism: Corynebacterium glutamicum ATCC 13032
HLA-B*15:01 = assay: as above; details: source organism: Corynebacterium glutamicum ATCC 13032
HLA-A*11:01 = assay: as above
HLA-B*46:01 [7] = assay: as above; details: source organism: Corynebacterium glutamicum ATCC 13032
HLA-A*03:01 [8] = assay: as above; details: source organism: Corynebacterium glutamicum ATCC 13032
HLA-B*07:02 = assay: as above
HLA-A*01:01 = assay: as above
HLA-B*40:01 = assay: as above
HLA-B*18:01 [9] = assay: as above; details: source organism: Corynebacterium glutamicum ATCC 13032
HLA-A*02:01 [10] = assay: as above; details: source organism: Corynebacterium glutamicum ATCC 13032
HLA-B*58:01 = assay: as above
HLA-B*27:05 = assay: as above
HLA-B*27:03 = assay: IEDB peptide-MHC binding, purified MHC/direct/fluorescence; filed as Kd, often an IC50 or EC50 that approximates it; ≥ and ≤ were set here for values at or beyond the usual limits of such assays; details: source organism: Yersinia pestis CA88-4125
HLA-A*02:06 [11] = assay: as above; details: source organism: Yersinia pestis CA88-4125
HLA-B*39:01 = assay: as above; details: source organism: Yersinia pestis CA88-4125
HLA-B*57:01 = assay: as above; details: source organism: Yersinia pestis CA88-4125
HLA-B*51:01 = assay: as above; details: source organism: Yersinia pestis CA88-4125
HLA-A*02:11 [12] = assay: as above; details: source organism: Yersinia pestis CA88-4125
HLA-A*26:01 [13] = assay: as above; details: source organism: Yersinia pestis CA88-4125
HLA-A*24:03 = assay: as above; details: source organism: Yersinia pestis CA88-4125
HLA-B*46:01 [14] = assay: as above; details: source organism: Yersinia pestis CA88-4125
HLA-A*03:01 [15] = assay: as above; details: source organism: Yersinia pestis CA88-4125
HLA-A*29:02 = assay: as above; details: source organism: Yersinia pestis CA88-4125
HLA-B*18:01 [16] = assay: as above; details: source organism: Yersinia pestis CA88-4125
HLA-B*14:02 = assay: IEDB peptide-MHC binding, purified MHC/competitive/fluorescence; filed as Kd, often an IC50 or EC50 that approximates it; ≥ and ≤ were set here for values at or beyond the usual limits of such assays; details: source organism: Yersinia pestis CO92
HLA-B*08:01 = assay: as above; details: source organism: Yersinia pestis CO92
HLA-B*44:02 = assay: as above; details: source organism: Yersinia pestis CO92
HLA-B*53:01 = assay: as above; details: source organism: Yersinia pestis CO92
HLA-A*23:01 = assay: as above; details: source organism: Yersinia pestis CO92
HLA-A*30:02 = assay: as above; details: source organism: Yersinia pestis CO92
HLA-A*66:01 = assay: as above; details: source organism: Yersinia pestis CO92
[17] = source organism: Listeria monocytogenes
[18] = source organism: Corynebacterium glutamicum ATCC 13032
[19] = source organism: Yersinia pestis CA88-4125
[20] = source organism: Yersinia pestis CO92

Work on ALVSEVTEV yielded a pKd (HLA-A*02:16 [1]) of 8.70, a pKd (HLA-A*69:01; [17]) of 5.72 and a pKd (HLA-A*02:01 [2]; [17]) of 7.10. The pKd (HLA-A*02:50; source organism: Listeria monocytogenes EGD-e) was no less than 10.00.
HLPELIWRS showed a pKd (HLA-A*02:06 [3]) of 8.66, a pKd (HLA-B*35:01) of no more than 4.70 and a pKd (HLA-A*02:19) of no more than 4.70. The pKd (HLA-A*02:16 [4]) was 7.01, the pKd (HLA-A*02:12) was 6.10 and the pKd (HLA-A*31:01) was no more than 4.70. For the same sequence, the pKd (HLA-A*24:02) was no more than 4.70, the pKd (HLA-A*02:50; [18]) was 7.87 and the pKd (HLA-A*02:03) was 6.02. For the same sequence, the pKd (HLA-A*30:01; [18]) was no more than 4.70, the pKd (HLA-A*02:11 [5]) was 7.57 and the pKd (HLA-A*26:01 [6]) was no more than 4.70. It also gave a pKd (HLA-B*15:01) of no more than 4.70, a pKd (HLA-A*11:01; [18]) of no more than 4.70 and a pKd (HLA-B*46:01 [7]) of no more than 4.70. The pKd (HLA-A*03:01 [8]) was no more than 4.70, the pKd (HLA-B*07:02; [18]) was no more than 4.70 and the pKd (HLA-A*01:01; [18]) was no more than 4.70. For the same sequence, the pKd (HLA-B*40:01; [18]) was no more than 4.70, the pKd (HLA-B*18:01 [9]) was no more than 4.70 and the pKd (HLA-A*02:01 [10]) was 6.01. The pKd (HLA-B*58:01; [18]) was no more than 4.70 and the pKd (HLA-B*27:05; [18]) was no more than 4.70.
Sequence QQRPDLILV has a pKd (HLA-B*27:03) of no more than 4.70, a pKd (HLA-A*02:06 [11]) of 6.77 and a pKd (HLA-B*39:01) of no more than 4.70. The pKd (HLA-B*57:01) was no more than 4.70, the pKd (HLA-B*51:01) was no more than 4.70 and the pKd (HLA-A*02:11 [12]) was no more than 4.70. For the same sequence, the pKd (HLA-A*26:01 [13]) was no more than 4.70, the pKd (HLA-A*24:03) was no more than 4.70 and the pKd (HLA-B*46:01 [14]) was no more than 4.70. For the same sequence, the pKd (HLA-A*03:01 [15]) was no more than 4.70, the pKd (HLA-A*69:01; [19]) was no more than 4.70 and the pKd (HLA-A*29:02) was 7.05. The pKd (HLA-B*18:01 [16]) was no more than 4.70, the pKd (HLA-A*02:01 [2]; [19]) was 5.46 and the pKd (HLA-B*14:02) was no more than 5.30. For the same sequence, the pKd (HLA-A*30:01; [20]) was no more than 5.30, the pKd (HLA-B*08:01) was no more than 5.30 and the pKd (HLA-B*44:02) was no more than 5.30. For the same sequence, the pKd (HLA-A*11:01; [20]) was no more than 5.30, the pKd (HLA-B*53:01) was no more than 5.30 and the pKd (HLA-B*07:02; [20]) was no more than 5.30. It also gave a pKd (HLA-A*01:01; [20]) of no more than 5.30, a pKd (HLA-B*40:01; [20]) of no more than 5.30 and a pKd (HLA-A*23:01) of no more than 5.30. It also gave a pKd (HLA-A*30:02) of no more than 4.70, a pKd (HLA-A*66:01) of no more than 5.30 and a pKd (HLA-B*58:01; [20]) of no more than 5.30. The pKd (HLA-B*27:05; [20]) was no more than 5.30.
